# Tests used:
# [1] = target: IGF-2-like, endogenous in the larval fat body; assay: Co-IP (anti-IDE antibody) with western blot band quantification; settings: fat body of larvae; 10% gel in SDS-PAGE; three replicates; parent: est. 0.18; read off a plot
# [2] = target: USP1 (ultraspiracle), endogenous in the larval fat body; assay: as above; settings: fat body of larvae; 10% gel in SDS-PAGE; three replicates; parent: est. 0.49; read off a plot
substance,measurement,setting,value
"IDE, wild type, endogenous in the larval fat body K179R",response (IGF-2-like/ACTB),[1],0.46
same,response,[2],0.16 USP1/ACTB
